From patent publication US20020122804

Experiments:
[1] = target: BSA (Fraction V, Sigma), P02769
[2] = target: T1, hyphal wall protein 1 (Hwp1) on C. albicans germ tube surfaces, P46593
T1 chain: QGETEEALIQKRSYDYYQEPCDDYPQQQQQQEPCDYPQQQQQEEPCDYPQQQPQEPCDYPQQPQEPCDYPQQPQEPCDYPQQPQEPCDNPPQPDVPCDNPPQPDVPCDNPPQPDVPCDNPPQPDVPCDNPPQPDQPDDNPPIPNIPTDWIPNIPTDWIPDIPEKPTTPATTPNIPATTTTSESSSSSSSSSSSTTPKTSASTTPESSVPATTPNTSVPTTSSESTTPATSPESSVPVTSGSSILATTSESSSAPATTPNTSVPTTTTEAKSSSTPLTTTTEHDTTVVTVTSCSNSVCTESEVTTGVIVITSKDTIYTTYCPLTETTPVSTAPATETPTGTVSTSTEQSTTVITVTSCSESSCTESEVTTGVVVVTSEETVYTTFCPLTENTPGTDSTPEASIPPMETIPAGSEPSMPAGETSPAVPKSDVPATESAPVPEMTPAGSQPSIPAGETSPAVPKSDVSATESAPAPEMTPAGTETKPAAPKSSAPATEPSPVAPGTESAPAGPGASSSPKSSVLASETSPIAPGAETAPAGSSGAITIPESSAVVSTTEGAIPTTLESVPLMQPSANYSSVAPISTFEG

[3] = target: rHwp1ΔC37, P46593
[4] = target: N,N' dimethylcasein

Sequence of BSA (Fraction V, Sigma), P02769 (P02769 25-607): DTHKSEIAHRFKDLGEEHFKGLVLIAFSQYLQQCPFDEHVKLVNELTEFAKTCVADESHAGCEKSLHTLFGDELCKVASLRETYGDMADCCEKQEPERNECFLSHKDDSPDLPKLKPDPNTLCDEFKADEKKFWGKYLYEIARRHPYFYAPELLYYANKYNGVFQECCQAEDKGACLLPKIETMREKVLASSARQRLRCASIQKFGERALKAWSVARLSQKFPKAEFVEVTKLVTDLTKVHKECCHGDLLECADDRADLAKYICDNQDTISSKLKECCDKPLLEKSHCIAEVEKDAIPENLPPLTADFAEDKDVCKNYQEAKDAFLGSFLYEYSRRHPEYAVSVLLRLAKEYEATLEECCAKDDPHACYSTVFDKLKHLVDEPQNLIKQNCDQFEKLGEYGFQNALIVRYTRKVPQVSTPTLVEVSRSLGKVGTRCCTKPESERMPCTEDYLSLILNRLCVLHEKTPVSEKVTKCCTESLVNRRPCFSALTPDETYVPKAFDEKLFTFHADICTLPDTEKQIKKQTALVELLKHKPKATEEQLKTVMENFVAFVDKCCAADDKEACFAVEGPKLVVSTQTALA

B1: guinea pig liver transglutaminase (protein)
chain: AEDLILERCDLQLEVNGRDHRTADLCRERLVLRRGQPFWLTLHFEGRGYEAGVDTLTFNAVTGPDPSEEAGTMARFSLSSAVEGGTWSASAVDQQDSTVSLLLSTPADAPIGLYRLSLEASTGYQGSSFVLGHFILLYNPRCPADAVYMDSDQERQEYVLTQQGFIYQGSAKFINGIPWNFGQFEDGILDICLMLLDTNPKFLKNAGQDCSRRSRPVYVGRVVSAMVNCNDDQGVLQGRWDNNYSDGVSPMSWIGSVDILRRWKDYGCQRVKYGQCWVFAAVACTVLRCLGIPTRVVTNFNSAHDQNSNLLIEYFRNESGEIEGNKSEMIWNFHCWVESWMTRPDLEPGYEGWQALDPTPQEKSEGTYCCGPVPVRAIKEGHLNVKYDAPFVFAEVNADVVNWIRQKDGSLRKSINHLVVGLKISTKSVGRDEREDITHTYKYPEGSEEEREAFVRANHLNKLATKEEAQEETGVAMRIRVGQNMTMGSDFDIFAYITNGTAESHECQLLLCARIVSYNGVLGPVCSTNDLLNLTLDPFSENSIPLHILYEKYGDYLTESNLIKVRGLLIEPAANSYVLAERDIYLENPEIKIRVLGEPKQNRKLIAEVSLKNPLPVPLLGCIFTVEGAGLTKDQKSVEVPDPVEAGEQAKVRVDLLPTEVGLHKLVVNFECDKLKAVKGYRNVIIGPA
[14C]-putrescine cross-linking detected by SDS-PAGE and fluorography [1]: no evidence of cross-linking of [^14C]-putrescine to transglutaminase itself or to BSA was seen | transglutaminase-mediated incorporation of [14C]-putrescine (TCA-precipitable counts) [1]: BSA served as a negative control | transglutaminase-mediated incorporation of a biotinylated lysine analogue into germ tubes (avidin-FITC fluorescence) [2]: Transglutaminase-mediated incorporation of a lysine analogue in the homozygous hwp1/hwp1 mutant strain CAH7-1A (FIG. 2E) was nearly absent as shown by the marked decrease in fluorescence compared to SC5314, CAI4, and CAH7 | [14C]-putrescine cross-linking detected by SDS-PAGE and fluorography [3]: [^14C]-putrescine cross-linking to rHwp1?C37 detected by SDS-PAGE and fluorography required active transglutaminase | transglutaminase-mediated incorporation of [14C]-putrescine (TCA-precipitable counts) [3]: Incorporation of [^14C]-putrescine by rHwp1?C37 was equivalent to that of casein, a known substrate of transglutaminases | transglutaminase-mediated incorporation of [14C]-putrescine (TCA-precipitable counts) [4]: Incorporation of [^14C]-putrescine by rHwp1?C37 was equivalent to that of casein, a known substrate of transglutaminases
